From PMC6168463, “Arc/Arg3.1 has an activity-regulated interaction with PICK1 that results in altered spatial dynamics” (Scientific Reports, 2018)
Values belong to the binder of their own block, whether it stands above or below them.

Experiments:
[1] = target: T1, Arc-mCherry (mouse), Q9WV31; assay: photon counting histogram (PCH) brightness analysis; live SH-SY5Y cells, cytosol; brightness normalised to monomeric EGFP or mCherry; co-transfected with the other construct or with the free fluorescent protein; 20 to 1,500 nM; conditions: remark: other sources report otherwise
T1 chain: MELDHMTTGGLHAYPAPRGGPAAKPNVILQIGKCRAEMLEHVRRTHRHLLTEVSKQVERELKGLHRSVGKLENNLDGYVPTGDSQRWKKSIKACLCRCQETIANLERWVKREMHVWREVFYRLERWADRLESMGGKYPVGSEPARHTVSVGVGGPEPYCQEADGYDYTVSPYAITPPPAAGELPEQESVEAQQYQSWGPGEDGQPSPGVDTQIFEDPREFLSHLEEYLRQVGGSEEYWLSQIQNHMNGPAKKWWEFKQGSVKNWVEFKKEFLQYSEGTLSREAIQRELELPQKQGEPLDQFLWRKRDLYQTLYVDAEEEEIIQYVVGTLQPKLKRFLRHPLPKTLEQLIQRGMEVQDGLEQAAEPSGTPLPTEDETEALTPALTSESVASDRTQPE

[2] = target: T1, Arc-mCherry (mouse), Q9WV31; assay: TIRF number and brightness (N&B) analysis; live SH-SY5Y cells, plasma membrane; brightness normalised to monomeric EGFP or mCherry; alone or co-transfected; conditions: remark: other sources report otherwise
[3] = target: T2, His-PICK1 (human, UniProt Q9NRD5 1-415); assay: pull-down; soluble His-PICK1 (1, 5 and 10 µM) with GST-Arc (1 µM) or GST (1 µM) bound to glutathione-agarose, or resin alone; 20 mM HEPES pH 7.5, 100 mM NaCl, 1 mM DTT, 1 h at 4 °C; bound PICK1 from SDS-PAGE and BCA assay; conditions: both partners purified
T2 construct: also called recombinant His-PICK1; source: E. coli BL21-Codon(+) DE3, pQE-80L, purified (HisTrap; SEC when needed)

[4] = target: the molecule itself; assay: TIRF number and brightness (N&B) analysis; live SH-SY5Y cells, plasma membrane; brightness normalised to monomeric EGFP or mCherry; alone or co-transfected

normalized brightness (Norm. ε) [1]: 1.37
stoichiometry N [2]: 2
binding result [3]: binds
B1: GST-Arc (natural protein, mouse, UniProt Q9WV31 1-396, looked up)
chain: T1 chain
notes: Arc (activity-regulated cytoskeleton-associated protein, Arg3.1), mouse cDNA; also called Arg3.1; Activity-regulated cytoskeleton-associated protein; source: pGST.parallel 1 vector, purified (glutathione agarose resin, eluted with 50 mM glutathione; SEC when needed)

B2: EGFP-PICK1 (natural protein, human, UniProt Q9NRD5 1-415, looked up)
chain: MFADLDYDIEEDKLGIPTVPGKVTLQKDAQNLIGISIGGGAQYCPCLYIVQVFDNTPAALDGTVAAGDEITGVNGRSIKGKTKVEVAKMIQEVKGEVTIHYNKLQADPKQGMSLDIVLKKVKHRLVENMSSGTADALGLSRAILCNDGLVKRLEELERTAELYKGMTEHTKNLLRAFYELSQTHRAFGDVFSVIGVREPQPAASEAFVKFADAHRSIEKFGIRLLKTIKPMLTDLNTYLNKAIPDTRLTIKKYLDVKFEYLSYCLKVKEMDDEEYSCIALGEPLYRVSTGNYEYRLILRCRQEARARFSQMRKDVLEKMELLDQKHVQDIVFQLQRLVSTMSKYYNDCYAVLRDADVFPIEVDLAHTTLAYGLNQEEFTDGEEEEEEEDTAAGEPSRDTRGAAGPLDKGGSWCDS
notes: PICK1, 'a human variant of PICK1' ligated to EGFP at the N terminus; source: SH-SY5Y cells, transfected, in live cells; not shown: EGFP, N-terminal, kept
stoichiometry N [4]: 2
